# T1: PlexinA2-ECD-Fc (human, UniProt O75051 35-1237)
# T1 construct: extracellular domain; Bought reagent
# T1 sequence (looked up): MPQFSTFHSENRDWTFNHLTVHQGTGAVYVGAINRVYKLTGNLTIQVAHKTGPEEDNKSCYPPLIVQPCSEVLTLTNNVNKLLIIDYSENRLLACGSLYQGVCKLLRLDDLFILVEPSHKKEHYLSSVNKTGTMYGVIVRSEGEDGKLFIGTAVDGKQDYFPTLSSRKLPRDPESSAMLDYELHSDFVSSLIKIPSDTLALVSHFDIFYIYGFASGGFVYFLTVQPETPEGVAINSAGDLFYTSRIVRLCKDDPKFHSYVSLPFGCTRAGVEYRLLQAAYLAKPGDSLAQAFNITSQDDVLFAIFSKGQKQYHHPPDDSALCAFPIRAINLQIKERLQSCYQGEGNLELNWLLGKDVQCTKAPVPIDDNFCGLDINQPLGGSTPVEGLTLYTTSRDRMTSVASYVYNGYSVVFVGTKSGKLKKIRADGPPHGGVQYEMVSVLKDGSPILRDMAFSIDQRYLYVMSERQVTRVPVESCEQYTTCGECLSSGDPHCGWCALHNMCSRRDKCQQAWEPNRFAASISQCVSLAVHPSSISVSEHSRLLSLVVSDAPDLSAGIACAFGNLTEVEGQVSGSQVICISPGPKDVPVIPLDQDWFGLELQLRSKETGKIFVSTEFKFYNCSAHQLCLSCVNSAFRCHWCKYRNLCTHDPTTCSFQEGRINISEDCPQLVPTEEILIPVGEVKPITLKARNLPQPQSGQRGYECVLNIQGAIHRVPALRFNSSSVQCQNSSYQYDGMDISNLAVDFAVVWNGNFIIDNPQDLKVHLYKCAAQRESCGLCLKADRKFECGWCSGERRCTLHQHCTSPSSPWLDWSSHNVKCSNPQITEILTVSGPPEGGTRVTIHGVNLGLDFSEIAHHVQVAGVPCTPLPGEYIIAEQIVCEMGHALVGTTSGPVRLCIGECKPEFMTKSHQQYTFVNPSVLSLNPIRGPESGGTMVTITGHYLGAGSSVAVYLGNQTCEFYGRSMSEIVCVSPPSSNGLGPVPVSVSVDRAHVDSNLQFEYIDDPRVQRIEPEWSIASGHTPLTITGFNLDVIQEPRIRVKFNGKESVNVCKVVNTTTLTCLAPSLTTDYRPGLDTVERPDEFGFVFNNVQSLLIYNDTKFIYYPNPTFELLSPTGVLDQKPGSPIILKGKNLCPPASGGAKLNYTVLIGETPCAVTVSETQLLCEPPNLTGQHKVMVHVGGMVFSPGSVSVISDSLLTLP
# T2: RON-ECD-Fc (human, UniProt Q04912 25-957)
# T2 construct: extracellular domain; Bought reagent; not shown: Fc part of the bought fusion
# T2 sequence (looked up): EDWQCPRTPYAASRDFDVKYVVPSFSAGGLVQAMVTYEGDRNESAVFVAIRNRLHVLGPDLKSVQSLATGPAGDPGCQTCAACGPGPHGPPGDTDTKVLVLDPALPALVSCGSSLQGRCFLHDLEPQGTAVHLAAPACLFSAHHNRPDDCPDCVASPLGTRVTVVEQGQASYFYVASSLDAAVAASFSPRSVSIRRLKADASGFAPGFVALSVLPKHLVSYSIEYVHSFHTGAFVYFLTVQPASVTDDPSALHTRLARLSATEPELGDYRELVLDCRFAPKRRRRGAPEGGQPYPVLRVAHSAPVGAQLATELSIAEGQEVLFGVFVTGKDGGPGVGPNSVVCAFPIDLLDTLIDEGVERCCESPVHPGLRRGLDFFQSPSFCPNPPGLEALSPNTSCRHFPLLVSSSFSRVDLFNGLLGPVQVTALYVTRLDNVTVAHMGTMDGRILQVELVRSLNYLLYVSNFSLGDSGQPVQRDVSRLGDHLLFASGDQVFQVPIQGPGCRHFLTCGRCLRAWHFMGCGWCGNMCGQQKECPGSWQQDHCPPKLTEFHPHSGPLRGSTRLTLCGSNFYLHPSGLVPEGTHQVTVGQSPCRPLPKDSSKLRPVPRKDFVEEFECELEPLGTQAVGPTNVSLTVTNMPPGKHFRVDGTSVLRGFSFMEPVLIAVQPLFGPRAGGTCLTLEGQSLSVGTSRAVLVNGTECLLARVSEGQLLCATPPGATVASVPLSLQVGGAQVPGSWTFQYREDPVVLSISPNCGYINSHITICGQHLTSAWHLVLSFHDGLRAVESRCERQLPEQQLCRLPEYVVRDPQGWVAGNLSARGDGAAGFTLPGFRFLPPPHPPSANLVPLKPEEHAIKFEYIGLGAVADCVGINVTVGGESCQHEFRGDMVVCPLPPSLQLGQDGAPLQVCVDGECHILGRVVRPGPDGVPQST
# B1: C8-6 (antibody, human IgG2, kappa, V domains shown)
# VH: QVQLVQSGAEVKKPGASVKVSCKASGYTFTDYYMHWVRQAPGQGLEWMGRVNPNRGGTTYNQKFEGRVTMTTDTSTSTAYMELRSLRSDDTAVYYCARTNWLDYWGQGTTVTVSS
# VL: DIQMTQSPSSLSASVGDRVTITCSVSSSVSSIYLHWYQQKPGKAPKLLIYSTSNLASGVPSRFSGSGSGTDFTLTISSLQPEDFATYYCIQYSGYPLTFGGGTKVEIKR
# notes: Called IgG4, kappa; also called Mab C8-6
# Columns and labels:
# Human c-Met-Flis-Fc ECD [1] = molecular target: T3, Human c-Met-Flis-Fc ECD (human); experiment: ELISA, coated ECD-Fc, antibody 100000.000 ng/mL
# T3 construct: also called human c-Met extracellular domain (ECD)-Fc-Flis fusion; Human cMet-ECD-Fc-Flis
# Protocol: (§1) Wells of 96-well EIA/RIA high binding plates (Costar, #2592) are coated with 100 μL of 1 μg/mL human c-Met extracellular domain (ECD)-Fc-Flis fusion (SEQ ID NO:72), RON-ECD-Fc (R&D Systems, #1947-MS), or PlexinA2-ECD-Fc (Abnova, Taipei, Taiwan #H00005362-P01) in coating buffer (BioFX Labs, # COAT-1000-01) overnight at 4° C. […] After the plates are washed, 100 μL/well of substrate solution (BioFx, #TMBW-1000-01) are added and the plates are incubated for 10 min. at room temperature. 100 μL/well of stop solution (BioFx, # LSTP-1000-01) are added to stop the reaction. The colorimetric signals are developed and read at 450 nm using a SpectraMax 190 plate reader (Molecular Devices, Sunnyvale, Calif.). c-Met antibody binding to c-Met, RON and PlexinA2 ECDs is proportional to color signal production.
# PlexinA2-ECD-Fc [2] = molecular target: T1, PlexinA2-ECD-Fc; experiment: ELISA, coated ECD-Fc, antibody 100000.000 ng/mL
# Protocol: as §1
# RON-ECD-Fc [3] = molecular target: T2, RON-ECD-Fc; experiment: ELISA, coated ECD-Fc, antibody 100000.000 ng/mL
# Protocol: as §1
# Human c-Met-Flis-Fc ECD [4] = molecular target: T3, Human c-Met-Flis-Fc ECD; experiment: ELISA, coated ECD-Fc, antibody 462.963 ng/mL
# Protocol: as §1
# PlexinA2-ECD-Fc [5] = molecular target: T1, PlexinA2-ECD-Fc; experiment: ELISA, coated ECD-Fc, antibody 462.963 ng/mL
# Protocol: as §1
# RON-ECD-Fc [6] = molecular target: T2, RON-ECD-Fc; experiment: ELISA, coated ECD-Fc, antibody 462.963 ng/mL
# Protocol: as §1
# T3 sequence (chain, as listed by the source limits assumed): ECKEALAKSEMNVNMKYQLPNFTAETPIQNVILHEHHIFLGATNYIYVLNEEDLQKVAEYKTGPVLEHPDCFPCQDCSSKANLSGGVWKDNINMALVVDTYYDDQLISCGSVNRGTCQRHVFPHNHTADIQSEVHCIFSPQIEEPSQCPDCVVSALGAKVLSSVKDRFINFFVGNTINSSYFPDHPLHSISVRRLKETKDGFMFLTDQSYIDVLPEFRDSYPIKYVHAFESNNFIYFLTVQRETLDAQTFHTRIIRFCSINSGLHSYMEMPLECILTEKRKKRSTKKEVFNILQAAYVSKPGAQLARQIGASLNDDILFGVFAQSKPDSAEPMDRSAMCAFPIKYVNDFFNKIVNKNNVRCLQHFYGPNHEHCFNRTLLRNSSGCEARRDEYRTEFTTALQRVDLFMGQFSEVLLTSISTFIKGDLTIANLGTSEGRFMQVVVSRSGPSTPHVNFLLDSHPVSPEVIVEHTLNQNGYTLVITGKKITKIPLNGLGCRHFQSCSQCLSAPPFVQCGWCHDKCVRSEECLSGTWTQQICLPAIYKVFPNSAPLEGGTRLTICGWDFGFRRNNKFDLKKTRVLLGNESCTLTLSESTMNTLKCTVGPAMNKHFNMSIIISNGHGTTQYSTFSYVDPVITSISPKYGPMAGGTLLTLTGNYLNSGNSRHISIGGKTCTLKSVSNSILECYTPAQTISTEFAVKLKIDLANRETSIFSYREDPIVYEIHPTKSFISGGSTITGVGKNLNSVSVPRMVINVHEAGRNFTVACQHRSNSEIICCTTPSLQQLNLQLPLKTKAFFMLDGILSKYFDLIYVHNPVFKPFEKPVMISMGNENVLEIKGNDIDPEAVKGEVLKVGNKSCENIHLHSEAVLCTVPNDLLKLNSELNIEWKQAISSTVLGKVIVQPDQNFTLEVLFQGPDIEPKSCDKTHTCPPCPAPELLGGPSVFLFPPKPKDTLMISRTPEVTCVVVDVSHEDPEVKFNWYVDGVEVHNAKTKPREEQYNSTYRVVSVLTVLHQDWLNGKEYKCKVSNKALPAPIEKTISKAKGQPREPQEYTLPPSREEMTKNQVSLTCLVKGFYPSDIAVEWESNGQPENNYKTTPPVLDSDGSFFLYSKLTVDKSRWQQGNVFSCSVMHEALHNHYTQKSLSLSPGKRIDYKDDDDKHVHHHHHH
binder,measurement,setting,value
B1,Average A450 nm,Human c-Met-Flis-Fc ECD [1],4 A450 nm
same,Average A450 nm,PlexinA2-ECD-Fc [2],0.171 A450 nm
same,Average A450 nm,RON-ECD-Fc [3],0.17 A450 nm
same,Average A450 nm,Human c-Met-Flis-Fc ECD [4],4 A450 nm
same,Average A450 nm,PlexinA2-ECD-Fc [5],0.086 A450 nm
same,Average A450 nm,RON-ECD-Fc [6],0.088 A450 nm

# From patent publication US20100129369A1 (Eli Lilly, published 2010)
